From patent US20110111406A1 (published 2011)

T1: recombinant soluble human IL-6 receptor (SR344) (human, UniProt P08887 20-344)
T1 construct: In the 'membrane-type IL-6 receptor' Biacore assays the same SR344 was biotinylated and immobilized via streptavidin; also called soluble IL-6 receptor; membrane-type IL-6 receptor (as biotinylated SR344 immobilized on the sensor chip)
T1 sequence (looked up): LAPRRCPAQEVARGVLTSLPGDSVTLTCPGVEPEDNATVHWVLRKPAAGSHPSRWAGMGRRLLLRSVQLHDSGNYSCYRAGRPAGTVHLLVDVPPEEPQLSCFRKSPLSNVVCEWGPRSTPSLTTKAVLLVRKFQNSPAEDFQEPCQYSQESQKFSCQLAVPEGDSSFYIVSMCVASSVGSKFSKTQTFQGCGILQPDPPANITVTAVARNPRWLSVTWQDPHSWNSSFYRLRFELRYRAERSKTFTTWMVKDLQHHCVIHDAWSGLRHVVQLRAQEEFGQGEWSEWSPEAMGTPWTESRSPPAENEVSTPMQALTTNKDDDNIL


target: T1, recombinant soluble human IL-6 receptor …; test: Biacore T100, biotinylated SR344 immobilized via streptavidin (membrane-type IL-6 receptor model), antibody as analyte; ratio of kd at pH 5.8 to pH 7.4
Description: Binding to the membrane-type IL-6 receptor was evaluated by evaluating binding to the IL-6 receptor immobilized on a sensor chip. SR344 was biotinylated in accordance with a method known among persons with ordinary skill in the art, and the biotinylated SR344 was immobilized on the sensor chip via streptavidin using the affinity between streptavidin and biotin. All the measurements were carried out at 37° C. The mobile phase buffer was 10 mM MES (pH 5.8), 150 mM NaCl and 0.05% Tween 20.
The pH-dependently-binding clones were injected under the condition of pH 7.4 to allow them to bind to SR344, and then, the pH-dependent dissociation of each clone at the pH of the mobile phase, pH 5.8, was observed. The results are shown in FIG. 21 (results for Fv1-M71, Fv1-M73, Fv3-M71, and Fv3-M73 are shown in FIG. 21, while results for other clones are shown in FIGS. 17 and 19). Analyses were carried out in the same manner as in Example 10 and the pH dependencies of the dissociation rate constants of all of the eleven types of clones are shown in Table 12.

Binder	kd(pH 5.8)/kd(pH 7.4)
Fv3-M73 (antibody, also called VH4-M73/VL1-CK) heavy: QVQLQESGPGLVKPSETLSLTCAVSGHSISHDHAWSWVRQPPGEGLEWIGFISYSGITNYNPTLQGRVTISRDNSKNTLYLQMNSLRAEDTAVYYCARSLARTTAMDYWGEGTLVTVSSASTKGPSVFPLAPSSKSTSGGTAALGCLVKDYFPEPVTVSWNSGALTSGVHTFPAVLQSSGLYSLSSVVTVPSSNFGTQTYTCNVDHKPSNTKVDKTVERKSCVECPPCPAPPVAGPSVFLFPPKPKDTLMISRTPEVTCVVVDVSQEDPEVQFNWYVDGVEVHNAKTKPREEQFNSTFRVVSVLTVVHQDWLNGKEYKCKVSNKGLPAPIEKTISKTKGQPREPQVYTLPPSQEEMTKNQVSLTCLVKGFYPSDIAVEWESNGQPENNYKTTPPMLDSDGSFFLYSKLTVDKSRWQEGNVFSCSVMHEALHAHYTQKSLSLSP light: DIQMTQSPSSLSASVGDSVTITCQASRDISSHLNWYQQKPGKAPELLIYYGSHLLSGVPSRFSGSGSGTDFTFTISSLEAEDAATYYCGQGNRLPYTFGQGTKVEIERTVAAPSVFIFPPSDEQLKSGTASVVCLLNNFYPREAKVQWKVDNALQSGNSQESVTEQDSKDSTYSLSSTLTLSKADYEKHKVYACEVTHQGLSSPVTKSFNRGEC	10.9
Fv1-M73 (antibody, also called VH2-M73/VL2-CK) heavy: QVQLQESGPGLVKPSETLSLTCAVSGYSISHDHAWSWVRQPPGEGLEWIGHISYSGITNYNPHLQDRVTISRDTSKNQFSLKLSSVTAADTAVYYCARFLARITAHDHWGEGTLVTVSSASTKGPSVFPLAPSSKSTSGGTAALGCLVKDYFPEPVTVSWNSGALTSGVHTFPAVLQSSGLYSLSSVVTVPSSNFGTQTYTCNVDHKPSNTKVDKTVERKSCVECPPCPAPPVAGPSVFLFPPKPKDTLMISRTPEVTCVVVDVSQEDPEVQFNWYVDGVEVHNAKTKPREEQFNSTFRVVSVLTVVHQDWLNGKEYKCKVSNKGLPAPIEKTISKTKGQPREPQVYTLPPSQEEMTKNQVSLTCLVKGFYPSDIAVEWESNGQPENNYKTTPPMLDSDGSFFLYSKLTVDKSRWQEGNVFSCSVMHEALHAHYTQKSLSLSP light: DIQMTQSPSSLSASVGDSVTITCQASRDISSHLNWYQQKPGKAPELLIYYGSHLESGVPSRFSGSGSGTDFTFTISSLEAEDAATYYCGQGNRLPYTFGQGTKVEIERTVAAPSVFIFPPSDEQLKSGTASVVCLLNNFYPREAKVQWKVDNALQSGNSQESVTEQDSKDSTYSLSSTLTLSKADYEKHKVYACEVTHQGLSSPVTKSFNRGEC	8.8
Fv1-M71 (antibody, human IgG2, kappa, also called VH2-M71/VL2-CK) heavy: QVQLQESGPGLVKPSETLSLTCAVSGYSISHDHAWSWVRQPPGEGLEWIGHISYSGITNYNPHLQDRVTISRDTSKNQFSLKLSSVTAADTAVYYCARFLARITAHDHWGEGTLVTVSSASTKGPSVFPLAPCSRSTSESTAALGCLVKDYFPEPVTVSWNSGALTSGVHTFPAVLQSSGLYSLSSVVTVPSSNFGTQTYTCNVDHKPSNTKVDKTVERKCCVECPPCPAPPVAGPSVFLFPPKPKDTLMISRTPEVTCVVVDVSHEDPEVQFNWYVDGVEVHNAKTKPREEQFNSTFRVVSVLTVVHQDWLNGKEYKCKVSNKGLPAPIEKTISKTKGQPREPQVYTLPPSREEMTKNQVSLTCLVKGFYPSDIAVEWESNGQPENNYKTTPPMLDSDGSFFLYSKLTVDKSRWQQGNVFSCSVMHEALHAHYTQKSLSLSPGK light: DIQMTQSPSSLSASVGDSVTITCQASRDISSHLNWYQQKPGKAPELLIYYGSHLESGVPSRFSGSGSGTDFTFTISSLEAEDAATYYCGQGNRLPYTFGQGTKVEIERTVAAPSVFIFPPSDEQLKSGTASVVCLLNNFYPREAKVQWKVDNALQSGNSQESVTEQDSKDSTYSLSSTLTLSKADYEKHKVYACEVTHQGLSSPVTKSFNRGEC	11.3
